Data from the nanobody polyreactivity screen of Harvey et al. (2022).

Assay: yeast display, Sf9 membrane polyspecificity reagent, FACS + sequencing; frameworks hold sequencing errors
Outline: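 Synthetic nanobody libraries on Saccharomyces cerevisiae BJ5465 were galactose-induced for 36–48 hours, stained 1 hour at 4 °C with 10% biotinylated, detergent-solubilized Sf9 membrane reagent and enriched on streptavidin microbeads. FACS then separated cells into low and high (top ~1%) gates by anti-HA (expression) and streptavidin (reagent binding) fluorescence. Genes were colony-PCR amplified, MiSeq 2 × 250 sequenced and CDR-length filtered. A clone's polyreactivity label is that of its gate of origin.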

Which “polyreactivity (PSR sort gate)” value does the source give for “QVQLVESGGGLVQAGGSLRLSCAASGRTFFSYTMGWSRQAPGKERELVAAISDSDGRTYYADSVKGRFTISRDNAKNTVYLQMNSLKPEDTAVYYCAAVPDKDWSRVRRYLFEDIYWGQGTQVTVSS” here?
Its value is “low polyreactivity”.

Which “polyreactivity (PSR sort gate)” value does the source give for “QVQLVESGGGLVQAGGSLRLSCAASGRTFFTNAMGWYRQAPGKERELVASINSGGNTTYADSVKGRFTISRDNAKNTVYIQMNSLKPEDTAVYYCAAVRSAQRWRRYYYWGQGTQVTVSS” here?
The value was “low polyreactivity”.

For “QVQLVESGGGLVQAGGSLRLSCAASGRTFFTNTMGWYRQAPGKERELVAAITRSGASTYYADSVKGRFTISRDNAKNTVYLQMNSLKPEDTAVYYCAAQRSKYSTVGKYGYWGQGTQVTVSS”, which “polyreactivity (PSR sort gate)” value is on record?
The value was “high polyreactivity”.

Which “polyreactivity (PSR sort gate)” value does the source give for “QVQLVESGGGLVQAGGSLRLSCAASGRTFFTYAMGWYRQAPGKERELVASITSSGVSTYYADSVKGRFTISRDNAKNTVYLQINRLKPEDTAVYHCNTRYPYYWPIYGYWGQGTQVTVSS” here?
Its value is “high polyreactivity”.

Which “polyreactivity (PSR sort gate)” value does the source give for “QVQLVESGGGLVQAGGSLRLSCAASGRTFFWYVMGWYRKAPGKERELVATISYGGITYYADSVKGRFTISRDNAKNTVYLQMNSLKPEDTALYYCAAKPSRSLYYYWGQGTQVTVSS” here?
Its value is “high polyreactivity”.

For “QVQLVESGGGLVQAGGSLRLSCAASGRTFFYNAMGWYRQAPGKERELVAAISYSGGSTYYADSVKGRFTISRDNAKNTVYLQMNSLKPEDTAVYYCAAYHYARYRTSAGNYYWGQGTQVTVSS”, which “polyreactivity (PSR sort gate)” value is on record?
The value was “high polyreactivity”.

Which “polyreactivity (PSR sort gate)” value does the source give for “QVQLVESGGGLVQAGGSLRLSCAASGRTFFYYAMGWYRQAPGKERELVAAISGRGGSTYYADSVKGRFTISRDNAKNTVYLQMNSLKPVDTAVYFCAAQSPFRRYTSPWYDYWGQGTQVTVSS” here?
The value was “high polyreactivity”.

With “QVQLVESGGGLVQAGGSLRLSCAASGRTFGANAMGWYRQAPGKERELVATIRRGGSTYYADSVKGRFTISRDNAKNTVYLLMNSLKPEDTAVYYCATQYHSYAKEYDYWGQGTQVTVSS” as the sequence, how does the “polyreactivity (PSR sort gate)” value read?
The value was “low polyreactivity”.

Which “polyreactivity (PSR sort gate)” value does the source give for “QVQLVESGGGLVQAGGSLRLSCAASGRTFGAYTMGWYRQAPGKERELFAAINWSGGDTYYADSVKGRFTISRDNAKNTVYLQMNSLKPEDTAVYYCNADFGFGYVSLLYEYWGQGTQVTVSS” here?
Its value is “low polyreactivity”.

Which “polyreactivity (PSR sort gate)” value does the source give for “QVQLVESGGGLVQAGGSLRLSCAASGRTFGDYAMGWYRQAPGKERELVAAITIGGSTYYADSVKGRFTISRDNAKNTVYLQMNSLKPEDTAVYYCAATTYSIPSRYDSWGQGTQVTVSS” here?
Its value is “low polyreactivity”.

Which “polyreactivity (PSR sort gate)” value does the source give for “QVQLVESGGGLVQAGGSLRLSCAASGRTFGDYDMGWYRQAPGKERELVAAITSDGTTYYADSVKGRFTISRDNAKNTVYLQMNSLKPEDTAVYYCAADYWYVSWYDYWGQGTQVTVSS” here?
Its value is “low polyreactivity”.

For “QVQLVESGGGLVQAGGSLRLSCAASGRTFGEYAMGWYRQAPGKERELVADITNGSRTYYADSVKGRFTISRDNAKNTVYLQMNSLKPEDTAVYYCAADWWKEVDYWGQGTHVTVSS”, which “polyreactivity (PSR sort gate)” value is on record?
The value was “low polyreactivity”.

For “QVQLVESGGGLVQAGGSLRLSCAASGRTFGFYAMGWYRQAPGKERELVAAISKRGGSTYYADSVKGRFTISRDNAKNTVYLQMNSLKPEDTAVYYCAAVGYYLVKFDYWGQGTQVTVSS”, which “polyreactivity (PSR sort gate)” value is on record?
Its value is “high polyreactivity”.

For “QVQLVESGGGLVQAGGSLRLSCAASGRTFGGNAMGWYRQAPGKERELVAAISARAGSTYYADSVKGRFTISRDNAKNTVYLQMNSLKPEDTAVYYCAARRYAYTGGYWGQGTQVTVSS”, which “polyreactivity (PSR sort gate)” value is on record?
Its value is “high polyreactivity”.

Which “polyreactivity (PSR sort gate)” value does the source give for “QVQLVESGGGLVQAGGSLRLSCAASGRTFGGNAMGWYRQAPGKERELVAAITWRGGSTYYADSVKGRFTISRDNAKNTVYLQMNSLKPEDTAVYYCNAVRTGKYVKYYRSIFDYWGQGTQVTVSS” here?
Its value is “high polyreactivity”.

For “QVQLVESGGGLVQAGGSLRLSCAASGRTFGGNAMGWYRQAPGKERELVAGINISGGSTNYADTVKGRFTISRDNAKNTVYLQMNSLKPEDTAVYYCNADTAVYAWDDDYWGQGTQVTVSS”, which “polyreactivity (PSR sort gate)” value is on record?
Its value is “low polyreactivity”.

For “QVQLVESGGGLVQAGGSLRLSCAASGRTFGGNAMGWYRQAPGKERELVATIRSSSSTNYADSVKGRFTISRDNAKNTVYLQMNSLKPEDTAVYYCARRSQRGIYSMYYWGQGSQVTVSS”, which “polyreactivity (PSR sort gate)” value is on record?
The value was “low polyreactivity”.

For “QVQLVESGGGLVQAGGSLRLSCAASGRTFGGNAMGWYRQAPGKERELVAVIRSTGGSTYYADSVKGRFTISRDTAKNTVYVQMNSLKPEDTAVYYCAKGRGRNFGYWGQGTQVTVSS”, which “polyreactivity (PSR sort gate)” value is on record?
Its value is “high polyreactivity”.

Which “polyreactivity (PSR sort gate)” value does the source give for “QVQLVESGGGLVQAGGSLRLSCAASGRTFGGNAMGWYRQAPGKESELVAAISKSGGRTYYADSVKGRFTISRDNAKNTVYLQMNSLKPEDTAVYYCNKVLSVSQAGGFDYWGQGTQVTVSS” here?
The value was “high polyreactivity”.

With “QVQLVESGGGLVQAGGSLRLSCAASGRTFGGYAMGWYRQAPGKERELDASITSGGSTYYADSVKGRFTISRDNAKNTVYLEMNSLKPEDTAVYYCAADTYFETSTRAIPSNAYWGQGTQVTVSS” as the sequence, how does the “polyreactivity (PSR sort gate)” value read?
Its value is “low polyreactivity”.

With “QVQLVESGGGLVQAGGSLRLSCAASGRTFGGYAMGWYRQAPGKERELVAAITYSGGSTYYADSVKGRFTISRDNAKNTVYLQMNSLKPEDTAVYYCAAEGSSSYTYDYWGQGTQVTVSS” as the sequence, how does the “polyreactivity (PSR sort gate)” value read?
The value was “low polyreactivity”.

For “QVQLVESGGGLVQAGGSLRLSCAASGRTFGGYPMGWYRQAPGKERELVASINSGGSTYYADSVKGRFTISRDNAKNTVYLQMNSLKPEDTAVYYCAKRLGGRTLRKYGYWGQGTQVTVSS”, which “polyreactivity (PSR sort gate)” value is on record?
The value was “high polyreactivity”.

For “QVQLVESGGGLVQAGGSLRLSCAASGRTFGIKAMGWYRQAHGKERELVAVISFGDGGTYYADSVKGRFTISRDNAKNTVYLQMNSLKPEDTAVYYCATDYQSTSVWGGHFVINPYDYWGQGTQVTLSS”, which “polyreactivity (PSR sort gate)” value is on record?
Its value is “low polyreactivity”.

Which “polyreactivity (PSR sort gate)” value does the source give for “QVQLVESGGGLVQAGGSLRLSCAASGRTFGINAMGWYRQAPGKERELVAVISFGDGGTYYADSVKGRFTISRDNAKNTVYLQMNSLKPEDTAVYYCAAAIWYIKLYFVRRTEHGYWGQGTQVTVSS” here?
The value was “low polyreactivity”.

With “QVQLVESGGGLVQAGGSLRLSCAASGRTFGINAMGWYRQAPGKERELVAVISGSGGNTYYADSVKGRFTISRDNEKNTVYLQMNSLKPEDTAVYYCATRYEKFRYDYWGQGTQVTVSS” as the sequence, how does the “polyreactivity (PSR sort gate)” value read?
Its value is “low polyreactivity”.

Which “polyreactivity (PSR sort gate)” value does the source give for “QVQLVESGGGLVQAGGSLRLSCAASGRTFGIYAMGWYRQAPGKERELVASITRSSGGTYYADSVKGRFTISRDNAKNTVYLQMNSLKPEDTAVYYCAARLQGRYKYGYWGQGTQVTVSS” here?
The value was “high polyreactivity”.

Which “polyreactivity (PSR sort gate)” value does the source give for “QVQLVESGGGLVQAGGSLRLSCAASGRTFGKNAMGWYRQAPAKERELVAAISWGGGRTFYADSVKGRFTISRDNAKNTVYLQMNSLKPEDTAVYYCNAVQYPRRAKYDYWGQGTQVTVSS” here?
The value was “low polyreactivity”.

Which “polyreactivity (PSR sort gate)” value does the source give for “QVQLVESGGGLVQAGGSLRLSCAASGRTFGKNAMGWYRQAPGKEREFVAAITSRGGSTYYADSVKGRFTISRDNAKNTVYLQMNSLIPEDTAFYYCNREYKRPSQRTEHYYWGQGTQVTVSS” here?
Its value is “low polyreactivity”.

With “QVQLVESGGGLVQAGGSLRLSCAASGRTFGKYAMGWYRQAPGKERELVAAISSGGTTYYADSVKGRFTISRDNAKNTVYLQMNSLKPEDTAVYYCAADPRYPYNYWGQGTQVTVSS” as the sequence, how does the “polyreactivity (PSR sort gate)” value read?
The value was “low polyreactivity”.

With “QVQLVESGGGLVQAGGSLRLSCAASGRTFGKYAMGWYRQAPGKERELVAVITWRGVSTYADSVKGRFTISRDNAKNTVYLQMNSLKPEDTSFYYCAKTRVRGTEFGYWGLGTQVTVSS” as the sequence, how does the “polyreactivity (PSR sort gate)” value read?
The value was “low polyreactivity”.

With “QVQLVESGGGLVQAGGSLRLSCAASGRTFGLNAMGWYRQATGKERELVAAITSGGSTYYADSVKGRFTISRDNAKKTVYLQMNSLKPEDTAVYYCAVTYNGDSSWPGDYWGQGTQVTVSS” as the sequence, how does the “polyreactivity (PSR sort gate)” value read?
Its value is “low polyreactivity”.

Which “polyreactivity (PSR sort gate)” value does the source give for “QVQLVESGGGLVQAGGSLRLSCAASGRTFGLYAMGWYRQAPGKERELVADINGSGTRTYYADSVKGRFTISRDNAKNTVYLQMNSLKPEDTAVYYCYGRYHWLYYWGQGTQVTVSS” here?
The value was “high polyreactivity”.
